Article PMC11311238

Biological target: phycobilisome core (CK) of allophycocyanin cylinders from a Synechocystis PCC 6803 mutant lacking the rods (Synechocystis sp. PCC 6803 (endogenous in the rod-less mutant)) (UniProt Q01951)

B1: N-terminal domain (NTD) of the orange carotenoid protein (OCP) binding canthaxanthin (holo-NTD) (domain or fragment)
chain: VPATIARFSQLNAEDQLALIWFAYLEMGKTLTIAAPGAASMQLAENALKEIQAMGPLQQTQAMCDLANRADTPLCRTYASWSPNIKLGFWYRLGELMEQGFVAPIPAGYQLSANANAVLATIQGLESGQQITVLRNAVVDMGFTA
  fraction of the decay of excited CK bilins that is quenched (112 ps component) in CK-NTD, transient absorption with excitation at 694 nm: 76%
